In the supplement of paper PMC10567573 one finds protein stability index data, which are given here for 36 sequences.

± gives the standard deviation.

The nature of the data set: protein stability index of a GFP-peptide fusion (GPS, HEK-293T) (PSI 1-6); higher = more stable. The conditions noted are these: c terminus: a fixed tail appended.
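Further: 24-mer peptide tiles fused after GFP, lentivirally expressed, FACS-sorted into six equal bins by GFP/DsRed ratio, decoded by Illumina sequencing, PSI is the read-weighted mean bin number.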

On to IVSQKQIADRAAHDESPGNNVVDI [RAB11B], for which the protein stability index came to 5.16 ± 0.12 (treatment: DMSO) and 5.12 ± 0.1 (treatment: MLN4924 1 uM, 8 h).
With IWDINNQICTVKDIKAEPQPLSPA [ATF6], the protein stability index is, setting by setting: (treatment: DMSO) 3.96 ± 0.21; (treatment: MLN4924 1 uM, 8 h) 4.1 ± 0.24.
Turning to IYVKLIEECTDLQKEGEFSTCFTE [OAS1], the protein stability index was determined as 2.37 ± 0.2 (treatment: DMSO) and 2.26 ± 0.28 (treatment: MLN4924 1 uM, 8 h).
On the same counts, the results for KCGIHSMFPLHLAALNAHSDCCRK [ANKRD44] are 2.36 ± 0.2 and 2.62 ± 0.33.
As to KCLQGNADGDGGGGQCCRRQDSPS [PCDHGC5], the protein stability index reads like this: (treatment: DMSO) 5.25 ± 0.29; (treatment: MLN4924 1 uM, 8 h) 5.21 ± 0.1.
For KDILGFAVMFFIVFFAYAQLGYLL [PKD2L1], in that order: 2.81 ± 0.42 and 2.93 ± 0.54.
Turning to KDREYTDIIRKQVLGTKVDAERDG [CDC34], the protein stability index was found to be 5.08 ± 0.21 (treatment: DMSO) and 4.99 ± 0.18 (treatment: MLN4924 1 uM, 8 h).
On the same counts, the results for KDTVICAMKITQEPQGLGYWEAWR [SPACA3] are 2.27 ± 0.49 and 2.22 ± 0.23.
On the same counts, the results for KDVKERFSGSLVAALSATGPRFLA [TMEM175] are 2.88 ± 0.55 and 2.73 ± 0.68.
As to KEAVAALPPDVTTQSVMGFDPLPP [TCF25], the protein stability index (treatment: DMSO) came out at 4.79 ± 0.29 and the protein stability index (treatment: MLN4924 1 uM, 8 h) is 4.89 ± 0.26.
On to KEMFTVGCCVFAFLVGLLFVQRSG [SLC6A17], for which the protein stability index reads like this: (treatment: DMSO) 2.38 ± 0.66; (treatment: MLN4924 1 uM, 8 h) 3.13 ± 0.61.
In the case of KENREEARFQDKQYSSHHTAEKRK [CHGB], the protein stability index amounted to 5.21 ± 0.41 (treatment: DMSO) and 4.89 ± 0.34 (treatment: MLN4924 1 uM, 8 h).
Consider KGDKCKFSHDLTLERKCEKRSVYI [ZC3H15], for which the protein stability index is 2.74 ± 0.22 (treatment: DMSO) and 2.63 ± 0.067 (treatment: MLN4924 1 uM, 8 h).
On to KGHNTPKDIAHFWELGGGTSLLDL [DYNC2LI1], for which the protein stability index runs as follows: (treatment: DMSO) 3.02 ± 0.28; (treatment: MLN4924 1 uM, 8 h) 3.2 ± 0.11.
For the sequence KIGDTKRNTPIEALCENFPEEMAT [CSNK1G1], the protein stability index runs as follows: (treatment: DMSO) 5.14 ± 0.2; (treatment: MLN4924 1 uM, 8 h) 5.31 ± 0.2.
On to KIKVRFSFFLQIYLIMIFLGLYIN [HACD3], for which the protein stability index is, setting by setting: (treatment: DMSO) 3 ± 0.73; (treatment: MLN4924 1 uM, 8 h) 2.29 ± 0.96.
For KIRDWYQRQAPGPARDYSQYYRTI [KRT17], the protein stability index reads like this: (treatment: DMSO) 2.19 ± 0.37; (treatment: MLN4924 1 uM, 8 h) 2.42 ± 0.31.
Regarding KKFQSEKAAGSVSKSTQFEYAWCL [FIS1], the protein stability index reads like this: (treatment: DMSO) 2.12 ± 0.22; (treatment: MLN4924 1 uM, 8 h) 2.33 ± 0.13.
For KKKAIQEEEERDQALQAKASLTIP [YJU2B], the protein stability index by setting is: (treatment: DMSO) 5.27 ± 0.22; (treatment: MLN4924 1 uM, 8 h) 5.4 ± 0.21.
KKKKKQKNKKSSTGEASENGLEDI [TCF25] gave a protein stability index (treatment: DMSO) of 5.04 ± 0.097 and a protein stability index (treatment: MLN4924 1 uM, 8 h) of 4.49 ± 0.25.
On to KKKKTKKIKEKYIDQEELNKTKPI [HSP90AB1], for which the protein stability index (treatment: DMSO) is 4.28 ± 0.26 and the protein stability index (treatment: MLN4924 1 uM, 8 h) was 4.53 ± 0.31.
The sequence KKRRAQQAPPQDSSNKKEKKVLNH [DYRK1B] gave a protein stability index (treatment: DMSO) of 5.2 ± 0.32 and a protein stability index (treatment: MLN4924 1 uM, 8 h) of 5.3 ± 0.13.
For KKVYLTGFALDILFAIANGFSPSY [SLC22A15], the protein stability index reads like this: (treatment: DMSO) 2.68 ± 0.28; (treatment: MLN4924 1 uM, 8 h) 3.42 ± 0.22.
For KLASHTRDTTGVSQMFPSSKARTK [FBF1], the protein stability index is, setting by setting: (treatment: DMSO) 4.39 ± 0.16; (treatment: MLN4924 1 uM, 8 h) 4.58 ± 0.053.
For KLILTSSASVIFEGVDIKNGTEDL [NSDHL], in that order: 3.13 ± 0.33 and 3.27 ± 0.22.
With KLLKSMPILQGQIDALLEFDVHPN [SNAP91], the protein stability index came to 2.12 ± 0.21 (treatment: DMSO) and 2.33 ± 0.17 (treatment: MLN4924 1 uM, 8 h).
On the same counts, the results for KLNEQSPTRCTLEAGAMTFHYIIE [SEC22B] are 2.38 ± 0.75 and 2.25 ± 0.46.
For the sequence KLSFRARAYGFRGPGPQLRRGWRP [CHGA], the protein stability index came out at 3.01 ± 0.2 (treatment: DMSO) and 3.08 ± 0.29 (treatment: MLN4924 1 uM, 8 h).
For the sequence KNDVFICGGYNGEVILGDIWKLNL [KLHDC10], the protein stability index by setting is: (treatment: DMSO) 2.6 ± 0.84; (treatment: MLN4924 1 uM, 8 h) 2.33 ± 0.74.
As to KNKMMVCQVGGIEALVRTVLRAGD [CTNNB1], the protein stability index was 2.51 ± 0.45 (treatment: DMSO) and 2.22 ± 0.21 (treatment: MLN4924 1 uM, 8 h).
With KNYFQHREFSFTLKDDIYIRYQSF [PRIM1], the protein stability index is 2.22 ± 0.9 (treatment: DMSO) and 2.26 ± 0.87 (treatment: MLN4924 1 uM, 8 h).
As for KQASNLETAIADAEQRGDNALKDA [KRT71], the protein stability index was 5.66 ± 0.18 (treatment: DMSO) and 5.62 ± 0.22 (treatment: MLN4924 1 uM, 8 h).
For the sequence KRKMHLVFEYCDHTLLNELERNPN [CDKL4], the protein stability index was 2.26 ± 0.46 (treatment: DMSO) and 2.51 ± 0.51 (treatment: MLN4924 1 uM, 8 h).
With KRRPKREKHPKKPEPQQKAPLVPP [SRPK2], the protein stability index was determined as 4.948 ± 0.035 (treatment: DMSO) and 4.99 ± 0.19 (treatment: MLN4924 1 uM, 8 h).
Regarding KRRVALSPVTENSTSLSFLDSCNS [MYBL2], the protein stability index runs as follows: (treatment: DMSO) 3.65 ± 0.2; (treatment: MLN4924 1 uM, 8 h) 3.92 ± 0.34.
On the same counts, the results for KSALGAMGQWQLEVGDPAPLGAGN [DPCD] are 3.98 ± 0.21 and 3.96 ± 0.27.
